Data set [1] deals with CHO-derived latent TGFβ binding protein (LTBP).
In data set [2] the target is LAP-mIFNβ fusion protein (human (LAP of TGFβ) fused to mouse (IFNβ)). Put plainly: cell-based or functional assay.
Data set [3] concerns 75 kDa glycosylated product of mIFNβ-LAP.
Data set [4] has as its system 75 kDa glycosylated product of LAP-mIFNβ.

LAP-mIFNβ fusion protein, sequence (chain, as listed by the source): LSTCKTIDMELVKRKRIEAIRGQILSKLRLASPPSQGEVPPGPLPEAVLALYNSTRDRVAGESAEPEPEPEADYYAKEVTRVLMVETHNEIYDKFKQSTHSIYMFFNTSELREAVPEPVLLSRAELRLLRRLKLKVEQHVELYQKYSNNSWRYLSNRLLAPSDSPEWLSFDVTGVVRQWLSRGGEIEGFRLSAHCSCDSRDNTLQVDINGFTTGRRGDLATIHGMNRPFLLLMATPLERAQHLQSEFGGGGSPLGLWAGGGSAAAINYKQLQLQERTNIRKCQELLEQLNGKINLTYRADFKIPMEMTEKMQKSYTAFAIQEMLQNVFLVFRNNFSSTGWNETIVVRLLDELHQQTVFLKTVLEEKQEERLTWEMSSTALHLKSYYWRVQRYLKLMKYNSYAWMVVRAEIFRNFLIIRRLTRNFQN
active MMP1 (recombinant), sequence (P03956 100-469): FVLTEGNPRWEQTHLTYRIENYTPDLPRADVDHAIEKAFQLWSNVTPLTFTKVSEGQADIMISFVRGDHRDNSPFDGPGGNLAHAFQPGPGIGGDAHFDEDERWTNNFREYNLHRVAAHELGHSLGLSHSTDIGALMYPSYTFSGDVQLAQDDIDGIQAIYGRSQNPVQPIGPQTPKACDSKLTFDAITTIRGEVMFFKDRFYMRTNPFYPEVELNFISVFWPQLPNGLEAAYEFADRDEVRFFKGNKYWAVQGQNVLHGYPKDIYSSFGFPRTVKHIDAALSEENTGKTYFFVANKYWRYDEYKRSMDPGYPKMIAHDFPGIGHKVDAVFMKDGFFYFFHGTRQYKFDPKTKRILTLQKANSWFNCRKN
recombinant pro-MMP9, sequence (P14780 20-707): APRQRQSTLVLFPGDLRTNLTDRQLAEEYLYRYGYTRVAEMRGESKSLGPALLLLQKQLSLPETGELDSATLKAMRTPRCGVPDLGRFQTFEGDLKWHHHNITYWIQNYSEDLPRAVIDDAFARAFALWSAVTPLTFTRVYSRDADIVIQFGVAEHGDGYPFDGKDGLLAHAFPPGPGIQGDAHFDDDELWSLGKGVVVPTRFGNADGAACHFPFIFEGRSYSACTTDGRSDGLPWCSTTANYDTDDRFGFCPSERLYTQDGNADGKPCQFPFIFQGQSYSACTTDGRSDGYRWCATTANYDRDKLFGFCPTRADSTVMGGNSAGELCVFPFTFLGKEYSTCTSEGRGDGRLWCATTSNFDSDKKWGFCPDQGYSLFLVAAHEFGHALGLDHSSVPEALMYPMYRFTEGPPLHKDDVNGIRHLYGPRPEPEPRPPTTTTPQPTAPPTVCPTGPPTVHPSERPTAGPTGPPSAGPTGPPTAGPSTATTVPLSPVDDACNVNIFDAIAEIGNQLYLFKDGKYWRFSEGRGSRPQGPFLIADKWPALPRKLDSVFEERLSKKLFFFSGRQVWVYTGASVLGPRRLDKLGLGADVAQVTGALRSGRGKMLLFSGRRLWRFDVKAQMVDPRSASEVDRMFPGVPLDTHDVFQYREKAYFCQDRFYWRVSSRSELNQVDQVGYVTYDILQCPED
mIFNβ-LAP fusion protein, sequence (chain, as listed by the source): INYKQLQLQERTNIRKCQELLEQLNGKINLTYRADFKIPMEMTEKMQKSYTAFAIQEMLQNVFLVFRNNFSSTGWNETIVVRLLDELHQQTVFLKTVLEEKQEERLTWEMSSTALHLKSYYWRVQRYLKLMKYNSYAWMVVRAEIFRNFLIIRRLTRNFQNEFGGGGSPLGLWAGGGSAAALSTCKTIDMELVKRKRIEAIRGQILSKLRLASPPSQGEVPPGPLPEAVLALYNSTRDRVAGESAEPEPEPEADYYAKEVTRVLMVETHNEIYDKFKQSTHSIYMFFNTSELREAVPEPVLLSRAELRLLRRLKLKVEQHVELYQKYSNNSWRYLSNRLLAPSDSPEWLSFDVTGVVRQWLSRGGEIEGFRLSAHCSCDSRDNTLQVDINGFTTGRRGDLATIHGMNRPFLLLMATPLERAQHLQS

Consider active MMP3 (recombinant), for which the “proteolytic cleavage of immunoprecipitated protein, SDS-PAGE” value (from here on “proteolytic cleavage … SDS-PAGE”) in data set [1] is “The LTBP band was also cleaved by MMP3”; in the data set on LAP-mIFNβ fusion protein, “MMP3 was capable on its own to digest it into several discreet bands”; with mIFNβ-LAP fusion protein, “MMP3 was capable on its own to digest it into several discreet bands”. Also, the values for the mIFNβ biological activity (U/ml) after MMP treatment in the data set with LAP-mIFNβ fusion protein and in the data set with mIFNβ-LAP fusion protein were 9220 U/ml and 3070 U/ml, respectively.

Regarding active MMP3 (recombinant) (enzyme), in data set [2], the fold activation of antiviral activity (non-concentrated supernatants from MTX amplified cells) amounted to 32 fold.

Consider recombinant pro-MMP9, for which, in the data set with LAP-mIFNβ fusion protein, the mIFNβ biological activity (U/ml) after MMP treatment stood at 288 U/ml; the proteolytic cleavage result was “MMP9 could not cleave the fusion proteins”; the “proteolytic cleavage … SDS-PAGE” value was “pro-MMP9 or MMP1 did not cleave very efficiently the 57 kDa recombinant product”. Besides, in the data set on mIFNβ-LAP fusion protein, the mIFNβ biological activity (U/ml) after MMP treatment turned out to be 1540 U/ml; the proteolytic cleavage result is “MMP9 could not cleave the fusion proteins”; the “proteolytic cleavage … SDS-PAGE” value was “pro-MMP9 or MMP1 did not cleave very efficiently the 57 kDa recombinant product”.

For the substance active MMP1 (recombinant), the mIFNβ biological activity (U/ml) after MMP treatment with LAP-mIFNβ fusion protein and in the data set on mIFNβ-LAP fusion protein was 6140 U/ml throughout. In addition, the “proteolytic cleavage … SDS-PAGE” value is listed as “pro-MMP9 or MMP1 did not cleave very efficiently the 57 kDa recombinant product” in the data set with LAP-mIFNβ fusion protein, “MMP1 was capable of cleaving the glycosylated form of the fusion protein” in data set [3], “MMP1 was capable of cleaving the glycosylated form of the fusion protein” in data set [4] and “pro-MMP9 or MMP1 did not cleave very efficiently the 57 kDa recombinant product” with mIFNβ-LAP fusion protein.

For the substance active MMP1 (recombinant) (enzyme), the fold activation of antiviral activity (non-concentrated supernatants from MTX amplified cells) in data set [2] was 21 fold.

(Values after US6942853.)
